Like-named read-outs stand apart in the source and are kept apart here.
How the values were obtained:
[1] = molecular target: T1, LNCap membrane preparation (Homo sapiens, UniProt Q04609); test: ELISA for binding of J415 deimmunized antibodies to LNCap membrane preparation
T1 construct: ELISA plates were coated with LNCap membrane preparation; endogenous in cells; host or cells: LNCap (LNCaP) human prostate carcinoma cells, membrane preparation
Experimental: The J415 deimmunized antibodies (including various combinations of the deimmunized light chain and heavy chain subunits) were tested in an ELISA for binding to LNCap membrane preparation following the protocol as detailed above. ELISA plates were coated with LNCap membrane preparation and blocked with 5% BSA in phosphate buffered saline. Doubling dilutions of the J415 chimeric antibody (murine variable heavy and light chain regions fused to human constant heavy and light chain regions, respectively) and the deimmunized antibodies were applied. Detection was with horseradish peroxidase conjugated goat anti-human IgG and donkey anti-mouse for chimeric and mouse antibodies respectively. Color was developed with o-phenylene diamine substrate.

[2] = molecular target: prostate specific membrane antigen (Homo sapiens, UniProt Q04609); test: Competitive binding sites on PSMA; conditions: relative to J591, J533, E99 site
Description: To kill or ablate normal, benign hyperplastic, and cancerous prostate epithelial cells, a first antibody, e.g., a modified antibody, can be conjugated with a prodrug which is activated only when in close proximity with a prodrug activator. The prodrug activator is conjugated with a second antibody, e.g., a second modified antibody according to the present invention, preferably one that binds to a non-competing site on the prostate specific membrane antigen molecule. Whether two modified antibodies bind to competing or non-competing binding sites can be determined by conventional competitive binding assays. […] Monoclonal antibody J415, on the other hand, binds to a binding site that is non-competing with the site to which J591, J533, and E99 bind. Thus, for example, the first modified antibody can be one of J591, J533, and E99, and the second modified antibody can be J415. Alternatively, the first modified antibody can be J415, and the second modified antibody can be one of J591, J533, and E99. Drug-prodrug pairs suitable for use in the practice of the present invention are described in Blakely et al., “ZD2767, an Improved System for Antibody-directed Enzyme Prodrug Therapy That Results in Tumor Regressions in Colorectal Tumor Xenografts,” (1996) Cancer Research, 56:3287-3292, which is hereby incorporated by reference.

[3] = tested on: PSMA-positive human LNCaP tumors; test: Biodistribution of 131I labeled MAbs in nude mice bearing LNCaP tumors; conditions: mouse, in vivo
Experimental: (§1) Prior to use, the cells were trypsinized, counted and suspended in Matrigel (Collaborative Biomedical Products, Bedford, Mass.). Nu/Nu Balb C mice 8-10 weeks of age were inoculated, in the right and left flanks, with a suspension of 5×10^6 LNCaP cells in Matrigel (BD Biosciences, Bedford Mass.). After a period of 14-18 days, tumors (100-300 mg) had developed. The PSMA-negative DU145 and PC3 cells were implanted in nude mice in an identical manner.
(§2) The PSMA-positive and PSMA-negative tumor bearing mice were injected, via the tail vein, with 80 KBq of the iodinated MAb (400 MBq/mg) in 200 μL of PBS (pH 7.4, 0.2% BSA). Groups of animals (3-8/group) were sacrificed after 2, 4 or 6 days. The major organs and tumors were recovered. The tissue samples were weighed and counted, with appropriate standards in an automatic NaI(Tl) counter. These measured relative activity data (cpm) were background corrected and expressed as a percentage of the injected dose per gram (% ID/g). […] J415, J591 and 7E11 were labeled with ^111In (100 MBq/mg). 80 KBq of the ^111In labeled MAbs were injected in groups of animals. The % ID/g in various organs and tumor tissues was determined at 2-6 days post injection in a similar way as described for ^131I labeled MAbs.

[4] = tested on: PSMA-positive human LNCaP tumors; parameters: species or system nude mice; conditions: mouse, in vivo
Experimental: as §1, §2
For the imaging studies, animals were injected with 2 MBq of ^111In-DOTA-J591. […]

prostate specific membrane antigen, sequence (Q04609 whole entry): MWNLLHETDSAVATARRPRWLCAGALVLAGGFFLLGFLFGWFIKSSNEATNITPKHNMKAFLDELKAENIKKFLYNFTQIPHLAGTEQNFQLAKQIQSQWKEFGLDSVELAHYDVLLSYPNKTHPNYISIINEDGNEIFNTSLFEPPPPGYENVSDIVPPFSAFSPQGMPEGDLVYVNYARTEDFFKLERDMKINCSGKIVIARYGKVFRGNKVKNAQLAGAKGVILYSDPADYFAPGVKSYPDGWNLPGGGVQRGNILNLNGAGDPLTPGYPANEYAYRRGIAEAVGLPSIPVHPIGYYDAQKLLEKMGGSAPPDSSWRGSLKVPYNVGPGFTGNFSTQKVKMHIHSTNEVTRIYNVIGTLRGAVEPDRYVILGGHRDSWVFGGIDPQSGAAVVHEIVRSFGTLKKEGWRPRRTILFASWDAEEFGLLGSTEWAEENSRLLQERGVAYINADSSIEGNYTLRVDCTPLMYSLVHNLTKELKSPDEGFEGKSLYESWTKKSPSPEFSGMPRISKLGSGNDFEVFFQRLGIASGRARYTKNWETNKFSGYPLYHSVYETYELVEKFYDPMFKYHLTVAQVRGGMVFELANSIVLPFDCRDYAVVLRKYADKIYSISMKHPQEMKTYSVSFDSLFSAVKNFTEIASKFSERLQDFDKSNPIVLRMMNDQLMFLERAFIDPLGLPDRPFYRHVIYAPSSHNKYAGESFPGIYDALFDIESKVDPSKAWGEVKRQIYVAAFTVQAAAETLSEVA
T1 sequence (Q04609 whole entry): as above

B1: DIVH4/DIVK5: deimmunized J415 heavy chain version 4 combined with deimmunized J415 light chain version 5 (antibody, V domains shown)
VH: EVKLEESGGGLVQPGGSMKISCVASGFTFSNYWMNWVRQSPEKGLEWVAEIRSQSNNFATHYAESVKGRVIISRDDSKSSVYLQMNSLRAEDTAVYYCTRRWNNFWGQGTTVTVSS
VL: NIVMTQFPKSMSASAGERMTLTCKASENVGTYVSWYQQKPTQSPKMLIYGASNRFTGVPDRFSGSGSGTDFILTISSVQAEDLVDYYCGQSYTFPYTFGGGTKLEMK
[1]
  binding to LNCap as compared to the chimeric antibody: equivalent binding

B2: J415: murine monoclonal antibody to human PSMA, hybridoma ATCC HB-12109 (antibody, V domains shown)
VH: EVKLEESGGGLVQPGGSMKLSCVASGFTFSNYWMNWVRQSPEKGLEWVAEIRSQSNNFATHYAESVKGRVIISRDDSKSSVYLQMNNLRAEDTGIYYCTRRWNNFWGQGTTLTVSS
VL: NIVMTQFPKSMSISVGERVTLTCKASENVGTYVSWYQQKPEQSPKMLIYGASNRFTGVPDRFTGSGSATDFILTISSVQTEDLVDYYCGQSYTFPYTFGGGTKLEMK
[2]
  binding site on the prostate specific membrane antigen molecule: non-competing
[3]
  blood activity: significantly lower compared to that of 7E11
  tumor uptake: 12.2±3.24 % injected dose/gram
  tumor/blood and tumor/muscle ratios: significantly higher
[4]
  blood activity: 2.63±0.23 % ID/g
  tumor/blood ratios: significantly higher

B3: E99: murine monoclonal antibody to human PSMA, hybridoma ATCC HB-12101 (antibody, V domains shown)
VH: QVQLKESGPGLVASSQSLSITCTVSGFSLTAYGINWVRQPPGKGLEWLGVIWPDGNTDYNSTLKSRLNIFKDNSKNQVFLKMSSFQTDDTARYFCARDSYGNFKRGWFDFWGQGTTLTVSS
VL: NIVMTQSQKFMSTSPGDRVRVTCKASQNVGSDVAWYQAKPGQSPRILIYSTSYRYSGVPDRFTAYGSGTDFTLTITNVQSEDLTEYFCQQYNSYPLTFGAGTKLELK
[2]
  binding site on the prostate specific membrane antigen molecule: bind to competing binding sites

B4: J533: murine monoclonal antibody to human PSMA, hybridoma ATCC HB-12127 (antibody, V domains shown)
VH: EVQLQQSGPELVKPGASVKMSCKASGYTFTGYVMHWVKQKPGQVLEWIGYINPYNDVTRYNGKFKGKATLTSDKYSSTAYMELSGLTSEDSAVYYCARGENWYYFDSWGRGATLTVSS
VL: DIVLTQSPASLAVSLGQRATISCRASESIDSYDNTFMHWYQQKPGQPPNLLIFRASILESGIPARFSGSGSGTDFTLTIYPVEADDVATYYCHQSIEDPYTFGGGTKLEIK
[2]
  binding site on the prostate specific membrane antigen molecule: bind to competing binding sites
